Measured values taken from paper PMC3905715 (Nature Communications, 2013).

B1: mouse Rspo2 Fu1–Fu2 (mRspo2Fu1–Fu2, N37 or I39-G144), His10 [mouse] / mouse ZNRF3 ectodomain (K53-L205), biotinylated, immobilised for SPR [modified: biotin at the C-terminal BirA recognition sequence; biotin at the C-terminal BirA … (parent complex)
chain 1: ICKGCLSCSKDNGCSRCQQKLFFFLRREGMRQYGECLHSCPSGYYGHRAPDMNRCARCRIENCDSCFSKDFCTKCKVGFYLHRGRCFDECPDGFAPLDETMECVEG
chain 2: KETAFVEVVLFESSPSGDYTTHTTGLTGRFSRAGAMLSAEGEIVQMHPLGLCNNNDEEDLYEYGWVGVVKLEQPELDPKPCLTVLGKAKRAVQRGATAVIFDVSENPEAIDQLNQGSEDPLKRPVVYVKGADAIKLMNIVNKQKVARARIQHL

Variants of: B1
Assay: SPR

Variant	Kd [µM]
chain 2 M46T	1.5
chain 2 Q45E	5.6

Variants of: B1
Assay: SPR
Remark: another data set of the same source

Variant	Kd [µM]
chain 2 E57K	0.68
